Experimental data as given in IntAct's records for PubMed 31515488.

B1: EKC/KEOPS complex subunit TP53RK (Homo sapiens), Q96S44 (parent)
chain: MAAARATTPADGEEPAPEAEALAAARERSSRFLSGLELVKQGAEARVFRGRFQGRAAVIKHRFPKGYRHPALEARLGRRRTVQEARALLRCRRAGISAPVVFFVDYASNCLYMEEIEGSVTVRDYIQSTMETEKTPQGLSNLAKTIGQVLARMHDEDLIHGDLTTSNMLLKPPLEQLNIVLIDFGLSFISALPEDKGVDLYVLEKAFLSTHPNTETVFEAFLKSYSTSSKKARPVLKKLDEVRLRGRKRSMVG
B2: Germ cell-less protein-like 1 (Homo sapiens), Q96IK5 (parent)
chain: MGSLSSRVLRQPRPALAQQAQGARAGGSARRPDTGDDAAGHGFCYCAGSHKRKRSSGSFCYCHPDSETDEDEEEGDEQQRLLNTPRRKKLKSTSKYIYQTLFLNGENSDIKICALGEEWSLHKIYLCQSGYFSSMFSGSWKESSMNIIELEIPDQNIDVEALQVAFGSLYRDDVLIKPSRVVAILAAACLLQLDGLIQQCGETMKETVNVKTVCGYYTSAGTYGLDSVKKKCLEWLLNNLMTHQNVELFKELSINVMKQLIGSSNLFVMQVEMDIYTALKKWMFLQLVPSWNGSLKQLLTETDVWFSKQRKDFEGMAFLETEQGKPFVSVFRHLRLQYIISDLASARIIEQDAVVPSEWLSSVYKQQWFAMLRAEQDSEVGPQEINKEELEGNSMRCGRKLAKDGEYCWRWTGFNFGFDLLVTYTNRYIIFKRNTLNQPCSGSVSLQPRRSIAFRLRLASFDSSGKLICSRTTGYQILTLEKDQEQVVMNLDSRLLIFPLYICCNFLYISPEKKN
partner: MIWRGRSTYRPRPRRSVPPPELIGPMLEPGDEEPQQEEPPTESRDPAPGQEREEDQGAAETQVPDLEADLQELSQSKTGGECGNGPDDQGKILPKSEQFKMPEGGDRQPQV
B3: Grancalcin (Homo sapiens), P28676 (parent)
chain: MAYPGYGGGFGNFSIQVPGMQMGQPVPETGPAILLDGYSGPAYSDTYSSAGDSVYTYFSAVAGQDGEVDAEELQRCLTQSGINGTYSPFSLETCRIMIAMLDRDHTGKMGFNAFKELWAALNAWKENFMTVDQDGSGTVEHHELRQAIGLMGYRLSPQTLTTIVKRYSKNGRIFFDDYVACCVKLRALTDFFRKRDHLQQGSANFIYDDFLQGTMAI
partner: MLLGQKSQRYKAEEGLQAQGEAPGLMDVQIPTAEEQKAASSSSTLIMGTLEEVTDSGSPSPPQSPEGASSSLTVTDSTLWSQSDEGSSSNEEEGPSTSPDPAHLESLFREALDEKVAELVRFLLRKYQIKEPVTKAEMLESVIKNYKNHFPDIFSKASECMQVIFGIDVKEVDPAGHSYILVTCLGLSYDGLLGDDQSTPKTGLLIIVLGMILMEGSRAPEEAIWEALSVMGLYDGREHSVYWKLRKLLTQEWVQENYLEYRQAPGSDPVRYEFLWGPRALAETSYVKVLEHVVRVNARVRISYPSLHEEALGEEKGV

Variants of: B1
Conditions: with ccdb1_human CCNDBP1, O95273
Sequence of ccdb1_human CCNDBP1, O95273 (O95273 whole entry): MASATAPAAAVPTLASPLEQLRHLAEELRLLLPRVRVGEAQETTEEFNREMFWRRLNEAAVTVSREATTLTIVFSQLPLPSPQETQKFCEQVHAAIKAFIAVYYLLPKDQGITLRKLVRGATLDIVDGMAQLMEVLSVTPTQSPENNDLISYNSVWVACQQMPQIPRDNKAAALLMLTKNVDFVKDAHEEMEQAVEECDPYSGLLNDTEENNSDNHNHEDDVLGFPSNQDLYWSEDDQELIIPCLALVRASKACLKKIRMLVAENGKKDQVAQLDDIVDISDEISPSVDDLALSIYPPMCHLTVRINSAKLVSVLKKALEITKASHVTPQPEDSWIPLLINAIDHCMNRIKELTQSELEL

| effect of a mutation on the interaction | Variant |
| --- | --- |
| with no effect | T129A |

Variants of: B2
Conditions: with xage3_human XAGE3, Q8WTP9

| effect of a mutation on the interaction | Variant |
| --- | --- |
| with no effect | R457H |
| with no effect | I340V |
| with no effect | K123R |
| with no effect | E77K |
| with no effect | R449Q |
| with no effect | K281Q |
| with no effect | I147V |
| with no effect | Y61S |

Variants of: B3
Conditions: with maga8_human MAGEA8, P43361

| effect of a mutation on the interaction | Variant |
| --- | --- |
| disrupting interaction strength | K115R |
| disrupting interaction strength | S80A |
